Experimental data reported in paper PMC6315849.

Target: Labeled Vip3Aa (MST) (Bacillus thuringiensis)
Assay: MST; labeled Vip3Aa 10 nM, GST-FGFR-N titrated 0.3 nM to 10 µM; 25 mM HEPES pH 7.5, 0.05% Tween-20, 150 mM NaCl; 25 °C; Hill equation fit; three independent experiments

Work on “GST-FGFR-N (extracellular regions of Sf-FGFR, aa 27-415, with a GST tag) (domain or fragment)” yielded a Kd of 1430 nM.
